The values below come from patent US20240376151A1, “STAPLED PEPTIDES AND METHODS THEREOF” (FOG PHARMACEUTICALS, INC., priority 2022, published 2024).

The target in the assay is T1, RNF31 PUB domain (Homo sapiens, UniProt Q96EP0).
T1 construct: MBP-TEV (N, cleaved yes); made in house; host or cells: E. coli BL21 (DE3) pLysS
T1 sequence (Q96EP0 1-179): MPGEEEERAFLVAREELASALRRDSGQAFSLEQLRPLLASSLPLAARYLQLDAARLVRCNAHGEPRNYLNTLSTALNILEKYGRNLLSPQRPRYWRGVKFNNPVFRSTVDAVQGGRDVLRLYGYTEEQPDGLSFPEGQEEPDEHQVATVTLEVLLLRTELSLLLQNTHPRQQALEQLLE
The assay can be described thus: Phage Library Screening with NGS, RNF31 PUB domain. The format is binding. Conditions: for Phage library screen NGS readout, Target Concentration 10 / Phage library screen NGS readout, Target Concentration 30 / Phage library screen NGS readout, Target Concentration 100 / Phage library screen NGS readout, Target Concentration 300 / Phage library screen NGS readout, Target Concentration 1000: RNF31 PUB domain clusters C41-C45; for Phage library screen NGS readout, BLANK: clusters C41-C45.

Setting [1] is: target concentration 1000, first column.
The mark [2] stands for this setting: target concentration 1000, second column.

Consider DPAWMDCLYAAYDCQHM, for which the “Phage library screen NGS readout, Target Concentration 10” value amounted to 2; the “Phage library screen NGS readout, Target Concentration 30” value stood at 2; the “Phage library screen NGS readout, Target Concentration 100” value is listed as 0; the “Phage library screen NGS readout, Target Concentration 300” value came to 9. Further, under setting [1], the “Phage library screen NGS readout, Target Concentration 1000” value was found to be 29. For the same sequence, the “Phage library screen NGS readout, Target Concentration 1000” value under setting [2] is 24. Moreover, the “Phage library screen NGS readout, BLANK” value (column 1 of 5) amounted to 1. Where the note is “column 2 of 5”, the “Phage library screen NGS readout, BLANK” value is recorded as 1. Further, under “column 3 of 5”, the “Phage library screen NGS readout, BLANK” value was found to be 1. In addition, the “Phage library screen NGS readout, BLANK” value (column 4 of 5) came out at 0. For the setting “column 5 of 5”, the “Phage library screen NGS readout, BLANK” value stood at 0.
For DPAQDQCISAAVLCTYT, the “Phage library screen NGS readout, Target Concentration 10” value stood at 0; the “Phage library screen NGS readout, Target Concentration 30” value was 0; the “Phage library screen NGS readout, Target Concentration 100” value is 0; the “Phage library screen NGS readout, Target Concentration 300” value turned out to be 22. For the same sequence, the “Phage library screen NGS readout, Target Concentration 1000” value under setting [1] is on record as 44. Moreover, under setting [2], the “Phage library screen NGS readout, Target Concentration 1000” value is 37. Moreover, where the note is “column 1 of 5”, the “Phage library screen NGS readout, BLANK” value was 0. Moreover, the “Phage library screen NGS readout, BLANK” value (column 2 of 5) stood at 0. The “Phage library screen NGS readout, BLANK” value (column 3 of 5) came out at 1. In addition, the “Phage library screen NGS readout, BLANK” value (column 4 of 5) came out at 0. Also, the “Phage library screen NGS readout, BLANK” value (column 5 of 5) is given as 0.
As for DPAMQECMDAAIMCTYA, the “Phage library screen NGS readout, Target Concentration 10” value is given as 0; the “Phage library screen NGS readout, Target Concentration 30” value is 0; the “Phage library screen NGS readout, Target Concentration 100” value is 0; the “Phage library screen NGS readout, Target Concentration 300” value was 4. Besides, the “Phage library screen NGS readout, Target Concentration 1000” value under setting [1] is 14. The “Phage library screen NGS readout, Target Concentration 1000” value under setting [2] is recorded as 8. In addition, under “column 1 of 5”, the “Phage library screen NGS readout, BLANK” value is listed as 0. In addition, for the setting “column 2 of 5”, the “Phage library screen NGS readout, BLANK” value is reported as 2. Besides, for the setting “column 3 of 5”, the “Phage library screen NGS readout, BLANK” value was 0. Also, the “Phage library screen NGS readout, BLANK” value (column 4 of 5) came out at 0. Also, where the note is “column 5 of 5”, the “Phage library screen NGS readout, BLANK” value came out at 0.
Regarding DPAIRECMLAALVCSTY, the “Phage library screen NGS readout, Target Concentration 10” value came to 0; the “Phage library screen NGS readout, Target Concentration 30” value came to 1; the “Phage library screen NGS readout, Target Concentration 100” value is 3; the “Phage library screen NGS readout, Target Concentration 300” value was determined as 10. Further, under setting [1], the “Phage library screen NGS readout, Target Concentration 1000” value is 42. Also, the “Phage library screen NGS readout, Target Concentration 1000” value under setting [2] is given as 49. The “Phage library screen NGS readout, BLANK” value (column 1 of 5) worked out at 0. For the same sequence, the “Phage library screen NGS readout, BLANK” value (column 2 of 5) was found to be 0. Further, the “Phage library screen NGS readout, BLANK” value (column 3 of 5) turned out to be 0. In addition, the “Phage library screen NGS readout, BLANK” value (column 4 of 5) was found to be 1. Further, the “Phage library screen NGS readout, BLANK” value (column 5 of 5) is on record as 0.
On to DPAYWDCLYAAWSCDIL, for which the “Phage library screen NGS readout, Target Concentration 10” value amounted to 0; the “Phage library screen NGS readout, Target Concentration 30” value was determined as 1; the “Phage library screen NGS readout, Target Concentration 100” value came out at 0; the “Phage library screen NGS readout, Target Concentration 300” value is 4. For the same sequence, the “Phage library screen NGS readout, Target Concentration 1000” value under setting [1] stood at 9. The “Phage library screen NGS readout, Target Concentration 1000” value under setting [2] is 7. The “Phage library screen NGS readout, BLANK” value (column 1 of 5) worked out at 1. Further, the “Phage library screen NGS readout, BLANK” value (column 2 of 5) stood at 1. Moreover, for the setting “column 3 of 5”, the “Phage library screen NGS readout, BLANK” value was determined as 1. In addition, the “Phage library screen NGS readout, BLANK” value (column 4 of 5) was 0. Besides, the “Phage library screen NGS readout, BLANK” value (column 5 of 5) was 0.
Regarding DPASEWCLDAAVLCTYS, the “Phage library screen NGS readout, Target Concentration 10” value worked out at 0; the “Phage library screen NGS readout, Target Concentration 30” value was determined as 0; the “Phage library screen NGS readout, Target Concentration 100” value was found to be 3; the “Phage library screen NGS readout, Target Concentration 300” value was 18. For the same sequence, under setting [1], the “Phage library screen NGS readout, Target Concentration 1000” value was 63. The “Phage library screen NGS readout, Target Concentration 1000” value under setting [2] turned out to be 65. The “Phage library screen NGS readout, BLANK” value (column 1 of 5) turned out to be 2. Besides, the “Phage library screen NGS readout, BLANK” value (column 2 of 5) came out at 0. In addition, the “Phage library screen NGS readout, BLANK” value (column 3 of 5) amounted to 0. Further, the “Phage library screen NGS readout, BLANK” value (column 4 of 5) turned out to be 0. The “Phage library screen NGS readout, BLANK” value (column 5 of 5) came to 0.
Take DPANFTCRVAADVCSTY: the “Phage library screen NGS readout, Target Concentration 10” value is reported as 0; the “Phage library screen NGS readout, Target Concentration 30” value was 0; the “Phage library screen NGS readout, Target Concentration 100” value is on record as 3; the “Phage library screen NGS readout, Target Concentration 300” value was determined as 3. Besides, the “Phage library screen NGS readout, Target Concentration 1000” value under setting [1] stood at 26. For the same sequence, under setting [2], the “Phage library screen NGS readout, Target Concentration 1000” value amounted to 12. Besides, the “Phage library screen NGS readout, BLANK” value (column 1 of 5) was determined as 0. Also, the “Phage library screen NGS readout, BLANK” value (column 2 of 5) came to 0. Moreover, the “Phage library screen NGS readout, BLANK” value (column 3 of 5) is recorded as 1. For the same sequence, under “column 4 of 5”, the “Phage library screen NGS readout, BLANK” value stood at 0. Further, for the setting “column 5 of 5”, the “Phage library screen NGS readout, BLANK” value is 0.
As to DPAYWHCLYAAASCDDI, the “Phage library screen NGS readout, Target Concentration 10” value amounted to 0; the “Phage library screen NGS readout, Target Concentration 30” value turned out to be 0; the “Phage library screen NGS readout, Target Concentration 100” value worked out at 0; the “Phage library screen NGS readout, Target Concentration 300” value turned out to be 2. Under setting [1], the “Phage library screen NGS readout, Target Concentration 1000” value was found to be 8. Also, the “Phage library screen NGS readout, Target Concentration 1000” value under setting [2] turned out to be 4. The “Phage library screen NGS readout, BLANK” value (column 1 of 5) worked out at 0. Further, under “column 2 of 5”, the “Phage library screen NGS readout, BLANK” value turned out to be 3. In addition, the “Phage library screen NGS readout, BLANK” value (column 3 of 5) worked out at 0. In addition, the “Phage library screen NGS readout, BLANK” value (column 4 of 5) is reported as 0. Further, the “Phage library screen NGS readout, BLANK” value (column 5 of 5) was determined as 2.
As to DPAWWDCMYAASHCDTV, the “Phage library screen NGS readout, Target Concentration 10” value is reported as 0; the “Phage library screen NGS readout, Target Concentration 30” value worked out at 0; the “Phage library screen NGS readout, Target Concentration 100” value was determined as 0; the “Phage library screen NGS readout, Target Concentration 300” value is recorded as 3. Also, the “Phage library screen NGS readout, Target Concentration 1000” value under setting [1] came to 12. Further, the “Phage library screen NGS readout, Target Concentration 1000” value under setting [2] came to 2. For the setting “column 1 of 5”, the “Phage library screen NGS readout, BLANK” value is 2. Also, the “Phage library screen NGS readout, BLANK” value (column 2 of 5) worked out at 0. Moreover, the “Phage library screen NGS readout, BLANK” value (column 3 of 5) is given as 0. For the same sequence, the “Phage library screen NGS readout, BLANK” value (column 4 of 5) was 0. Also, the “Phage library screen NGS readout, BLANK” value (column 5 of 5) is 0.
On to DPAYDWCMYAAHECVDQ, for which the “Phage library screen NGS readout, Target Concentration 10” value is given as 0; the “Phage library screen NGS readout, Target Concentration 30” value came to 0; the “Phage library screen NGS readout, Target Concentration 100” value was 0; the “Phage library screen NGS readout, Target Concentration 300” value worked out at 3. Further, the “Phage library screen NGS readout, Target Concentration 1000” value under setting [1] is 3. Also, the “Phage library screen NGS readout, Target Concentration 1000” value under setting [2] is listed as 8. In addition, the “Phage library screen NGS readout, BLANK” value (column 1 of 5) is 0. Also, for the setting “column 2 of 5”, the “Phage library screen NGS readout, BLANK” value was determined as 0. Besides, the “Phage library screen NGS readout, BLANK” value (column 3 of 5) is 0. Moreover, the “Phage library screen NGS readout, BLANK” value (column 4 of 5) is given as 1. For the same sequence, where the note is “column 5 of 5”, the “Phage library screen NGS readout, BLANK” value is reported as 0.
As for DPAYWDCMYAAFYCDDI, the “Phage library screen NGS readout, Target Concentration 10” value was found to be 0; the “Phage library screen NGS readout, Target Concentration 30” value worked out at 0; the “Phage library screen NGS readout, Target Concentration 100” value is reported as 0; the “Phage library screen NGS readout, Target Concentration 300” value is reported as 3. Moreover, the “Phage library screen NGS readout, Target Concentration 1000” value under setting [1] was 3. For the same sequence, under setting [2], the “Phage library screen NGS readout, Target Concentration 1000” value came out at 8. The “Phage library screen NGS readout, BLANK” value (column 1 of 5) came out at 0. The “Phage library screen NGS readout, BLANK” value (column 2 of 5) is given as 0. The “Phage library screen NGS readout, BLANK” value (column 3 of 5) is on record as 0. Further, where the note is “column 4 of 5”, the “Phage library screen NGS readout, BLANK” value stood at 0. Besides, for the setting “column 5 of 5”, the “Phage library screen NGS readout, BLANK” value came to 2.
